Assay [1] concerns the target T1, flavodoxin (Fld); apo-Fld (Escherichia coli, UniProt P61949).
T1 sequence (P61949 2-176): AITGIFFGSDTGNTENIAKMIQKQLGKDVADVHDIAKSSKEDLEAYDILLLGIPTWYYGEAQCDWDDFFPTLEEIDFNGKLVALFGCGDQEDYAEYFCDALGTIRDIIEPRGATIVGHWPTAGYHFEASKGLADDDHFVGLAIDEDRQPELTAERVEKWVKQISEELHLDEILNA
The assay is described as follows: isothermal titration calorimetry. The class given is binding.

Assay [2] has as its target pyruvate formate-lyase activating enzyme (PFL-AE), Escherichia coli (Escherichia coli) (UniProt P0A9N6). The assay is described as follows: SPR. Background: Surface plasmon resonance follows binding to a sensor surface in real time, without labels.
Assay [3] has as its target NADP+-dependent flavodoxin oxidoreductase (FNR), Escherichia coli (E. coli) (UniProt P28861). The assay is described as follows: SPR.

The Kd is the constant that tells how readily two partners part at equilibrium. Low values mean higher affinity, high ones lower affinity.

Sequence of pyruvate formate-lyase activating enzyme (PFL-AE), Escherichia coli (Escherichia coli) (P0A9N6 2-246): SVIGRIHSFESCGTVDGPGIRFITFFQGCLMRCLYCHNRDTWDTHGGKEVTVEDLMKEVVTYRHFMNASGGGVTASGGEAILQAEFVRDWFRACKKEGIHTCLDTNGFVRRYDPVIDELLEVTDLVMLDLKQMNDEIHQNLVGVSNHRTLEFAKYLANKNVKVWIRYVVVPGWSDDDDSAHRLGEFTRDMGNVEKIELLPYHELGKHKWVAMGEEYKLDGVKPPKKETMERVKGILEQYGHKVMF
Sequence of NADP+-dependent flavodoxin oxidoreductase (FNR), Escherichia coli (E. coli) (P28861 whole entry): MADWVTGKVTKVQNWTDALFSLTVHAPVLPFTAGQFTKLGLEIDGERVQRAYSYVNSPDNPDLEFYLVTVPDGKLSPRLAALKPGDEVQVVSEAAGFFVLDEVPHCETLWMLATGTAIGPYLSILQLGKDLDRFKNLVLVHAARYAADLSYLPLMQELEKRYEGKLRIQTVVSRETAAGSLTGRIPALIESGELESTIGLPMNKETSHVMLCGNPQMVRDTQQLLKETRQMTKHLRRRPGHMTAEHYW

Consider `Cc1cc2nc3c(=O)[nH]c(=O)nc-3n(C[C@H](O)[C@H](O)[C@H](O)COP(=O)(O)O)c2cc1C` [FMN], for which the Kd in assay [1] amounted to 0.0056 ± 0.0012 µM.

Turning to “holo-flavodoxin (Fld with bound FMN cofactor), Escherichia coli (from UniProt P61949 2-176) (natural protein)”, the Kd was found to be 23.3 µM in assay [2] and 3.7 µM in assay [3].
